Assay results taken from patent US6509445 (NISSIN FOOD PRODUCTS, dated 2003).

Target: urokinase receptor (uPAR) (human, UniProt Q03405 23-305)
Assay: cell-based or functional assay

Sequence of urokinase receptor (uPAR) (Q03405 23-305): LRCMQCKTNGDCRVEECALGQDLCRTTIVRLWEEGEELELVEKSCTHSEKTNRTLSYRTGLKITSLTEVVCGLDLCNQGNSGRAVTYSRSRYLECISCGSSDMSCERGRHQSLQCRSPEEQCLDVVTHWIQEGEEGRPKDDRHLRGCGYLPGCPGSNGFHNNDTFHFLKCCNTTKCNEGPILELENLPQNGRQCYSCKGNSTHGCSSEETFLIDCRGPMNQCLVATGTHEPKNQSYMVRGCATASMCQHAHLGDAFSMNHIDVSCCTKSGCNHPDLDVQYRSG

B1: chimeric protein ATFHI-ML (other)
chain: MSNELHQVPSNCDCLNGGTCVSNKYFSNIHWCNCPKKFGGQHCEIDKSKTCYEGNGHFYRGKASTDTMGRPCLPWNSATVLQQTYHAHRSDALQLGLGKHNYCRNPDNRRRPWCYVQVGLKPLVQECMVHDCADGKKPSSPPEELKFQGTVAACNLPIVRGPCRAFIQLWAFDAVKGKCVLFPYGGCQGNGNKFYSEKECREYCGVPG
- Invasion inhibitory effect ID50 (nM), A375 cells: 120 nM
- Invasion inhibitory effect ID50 (nM), DU-145 cells: 2.9 nM
- Invasion inhibitory effect ID50 (nM), GE0 cells: 20 nM
- Invasion inhibitory effect ID50 (nM), H0C-I cells: 50 nM
- Invasion inhibitory effect ID50 (nM), MDA-MB-435 cells: 5.6 nM
- Invasion inhibitory effect ID50 (nM), PC-3 cells: 50 nM
- Invasion inhibitory effect ID50 (nM), SMT-ccl cells: 10 nM

B2: chimeric protein ATFHI-CL (other)
chain: MSNELHQVPSNCDCLNGGTCVSNKYFSNIHWCNCPKKFGGQHCEIDKSKTCYEGNGHFYRGKASTDTMGRPCLPWNSATVLQQTYHAHRSDALQLGLGKHNYCRNPDNRRRPWCYVQVGLKPLVQECMVHDCADGTVAACNLPIVRGPCRAFIQLWAFDAVKGKCVLFPYGGCQGNGNKFYSEKECREYCGVPGDGDEELL
- Invasion inhibitory effect ID50 (nM), A375 cells: 100 nM
- Invasion inhibitory effect ID50 (nM), DU-145 cells: 5 nM
- Invasion inhibitory effect ID50 (nM), GE0 cells: 200 nM
- Invasion inhibitory effect ID50 (nM), H0C-I cells: 20 nM
- Invasion inhibitory effect ID50 (nM), MDA-MB-435 cells: 20 nM
- Invasion inhibitory effect ID50 (nM), PC-3 cells: 20 nM
- Invasion inhibitory effect ID50 (nM), SMT-ccl cells: 1 nM

B3: chimeric protein ATFHI (other)
chain: MSNELHQVPSNCDCLNGGTCVSNKYFSNIHWCNCPKKFGGQHCEIDKSKTCYEGNGHFYRGKASTDTMGRPCLPWNSATVLQQTYHAHRSDALQLGLGKHNYCRNPDNRRRPWCYVQVGLKPLVQECMVHDCADGTVAACNLPIVRGPCRAFIQLWAFDAVKGKCVLFPYGGCQGNGNKFYSEKECREYCGVPG
- Invasion inhibitory effect ID50 (nM), A375 cells: 50 nM
- Invasion inhibitory effect ID50 (nM), DU-145 cells: 0.5 nM
- Invasion inhibitory effect ID50 (nM), GE0 cells: 110 nM
- Invasion inhibitory effect ID50 (nM), H0C-I cells: 10 nM
- Invasion inhibitory effect ID50 (nM), MDA-MB-435 cells: 3.5 nM
- Invasion inhibitory effect ID50 (nM), PC-3 cells: 20 nM
- Invasion inhibitory effect ID50 (nM), SMT-ccl cells: 1.2 nM
